Data: article PMC6479064

Columns and labels:
[1] = target: C. reinhardtii axonemal tubulin purified from the combined cyc1-cyc5 fractions (CP/B tubulin) (C. reinhardtii); assay: dynamic microtubule assay by IRM with mean-squared displacement (MSD) analysis; MT ends tracked with FIESTA; quadratic fit to the first 15 s of MSD against time; estimated rate constants of tubulin dimer binding and unbinding at the growing end
[2] = target: C. reinhardtii axonemal tubulin purified from the combined cyc1-cyc5 fractions (CP/B tubulin) (C. reinhardtii); assay: dynamic microtubule assay by interference reflection microscopy (IRM); label-free; tubulin at different concentrations in BRB80 with oxygen scavengers, 0.1 mg/ml casein, 1 mM dithiothreitol and 1 mM GTP, 28 °C; extensions grown from TAMRA-labeled GMPCPP-stabilized bovine brain MT seeds held on the coverslip by anti-TAMRA antibodies; constants from linear regression of growth rate against tubulin concentration; tubulin dimer onto the microtubule end

koff, minus end (MSD analysis) [1]: 228 s⁻¹ | koff, plus end (MSD analysis) [1]: 341 s⁻¹ | kon, minus end (MSD analysis) [1]: 2.6e+07 M⁻¹ s⁻¹ | kon, plus end (MSD analysis) [1]: 3.86e+07 M⁻¹ s⁻¹ | kon[Tub], minus end (MSD analysis) [1]: 234 s⁻¹ | kon[Tub], plus end (MSD analysis) [1]: 348 s⁻¹ | koff, minus end [2]: 1.16 s⁻¹ | koff, plus end [2]: 0.785 s⁻¹ | kon, minus end [2]: 430000 M⁻¹ s⁻¹ | kon, plus end [2]: 540000 M⁻¹ s⁻¹ | x-intercept (extrapolated tubulin concentration for growth), minus end [2]: 2.58 µM | x-intercept (extrapolated tubulin concentration for growth), plus end [2]: 1.35 µM
Substance: C. reinhardtii axonemal tubulin purified from the combined cyc1-cyc5 fractions (CP/B tubulin) (complex)
